Assay results from patent US20250027068.
Residue numbers refer to the chain shown, from its start.

B1: PRT-453 (protein)
chain: MVTSVWTKGVTPPANFTQGEDVFHAPYKANQGWYDITKTFNGKDDLLCGAATAGNMLHWWFDQNKDQIEAYLKEHPEKQKINFNGEQMFDVKEAIDTKDDQTNSKLFEYFKEKAFPYLSTKHLGVFPDHVLDMFINGYRLSLTNHGPTPVKEGSKDPRGGIFDAVFTRGDQSKLLTSRHDLKNKTLKEISDLIKQELTEGKALALSHTYANVRINHVINLWGADFDSNGNLEAIYVTDSDSNASIGMKKYFVGVNSAGKVAISAKEIEDDNIGAQVLGLFTLSTGQDIWNQTNLEHHHHHH
B2: PRT-451 (protein)
chain: MVTSVWTKGVTPPANFRKIVDGNIAYYHAPYKANQGWYDITKTFNGKDDLLCGAATAGNMLHWWFDQNKDQIEAYLKEHPEKQKINFNGEQMFDVKEAIDTKDDQTNSKLFEYFKEKAFPYLSTKHLGVFPDHVLDMFINGYRLSLTNHGPTPVKEGSKDPRGGIFDAVFTRGDQSKLLTSRHDLKNKTLKEISDLIKQELTEGKALALSHTYANVRINHVINLWGADFDSNGNLEAIYVTDSDSNASIGMKKYFVGVNSAGKVAISAKEIEDDNIGAQVLGLFTLSTGQDIWNQTNLEHHHHHH
B3: PRT-481 (protein)
chain: MVTSVWTKGVTPPTDFIYGEDVLHAPYKAGQGWYDITKAFDGGDDLLCGAATAGNMLHWWFDQNKEQIENYLKKHPEKQKINFNGEQMFDVKEAIDTKDSQTNSELFNYFKEKAFPYLSTKHLGVFPDHVIDMFINGYRLSLTNHGPTPVKRQEKDPRGGIFDAVFGRGDQTKLLTNRHDLKNKTLKEISDLIKQELTEGKALGISHTYANVRINHVINLWGADFDAEGNLEAIYVTDSDSNASIGMKKYFVGVNSNGKVAISAKEIEEDNIGAQVLGLFTLSTGQKIWNKTNLEHHHHHH
B4: PRT-474 (protein)
chain: MVTSVWTKGVTPPTDFRKIVDGNIAYYHAPYKAGQGWYDITKAFDGGDDLLCGAATAGNMLHWWFDQNKEQIENYLKKHPEKQKINFNGEQMFDVKEAIDTKDSQTNSELFNYFKEKAFPYLSTKHLGVFPDHVIDMFINGYRLSLTNHGPTPVKRGSKDPRGGIFDAVFTRGDQSKLLTNRHDLKNKTLKEISDLIKQELTEGKALGISHTYANVRINHVINLWGADFDAEGNLEAIYVTDSDSNASIGMKKYFVGVNSNGKVAISAKEIEEDNIGAQVLGLFTLSTGQDIWNQTNLEHHHHHH
B5: PRT-465 (protein)
chain: B1 chain with K28V, A70R, D100S, N103D, A204G, N228E, E232K, E268K, D269E
B6: PRT-463 (protein)
chain: B2 chain with K32V, A74R, D104S, N107D, A208G, N232E, E236K, E272K, D273E
B7: PRT-457 (protein)
chain: MVTSVWTKGVTPPTDFIKGEDVFHAPYKAGQGWYDITKAFDGGDDLLCGAATAGNMLHWWFDQNKDQIEAYLKEHPEKQKINFNGEQMFDVKEAIDTKDDQTNSELFNYFKEKAFPYLSTKHLGVFPDHVLDMFINGYRLSLTNHGPTPVKRQEKDPRGGIFDAVFGRGDQTKLLTSRHDLKNKTLKEISDLIKQELTEGKALALSHTYANVRINHVINLWGADFDSNGNLEAIYVTDSDSNASIGMKKYFVGVNSAGKVAISAKEIEDDNIGAQVLGLFTLSTGQKIWNKTNLEHHHHHH
B8: PRT-449 (protein)
chain: B2 chain with A14T, N15D, N34G, L185F, N187E
B9: PRT-490 (protein)
chain: MVTSVWTKGVTPPTDFIYGEDVLHAPYKAGQGWYDITKTFNGKDNLLCGAATAGNMLHWWFDQNKEQIENYLKKHPEKQKIIFNNQELFDLKAAIDTKDSQLDSKLFEYFKEKAFPYLSTKHLGVFPDHVIDMFINGYRLSLTNHGPTPVKRGSKDKRGGIFDAVFTRGVQSKLLTNRHDFKEKTLKEISDLIKQELTEGKALGISHTYANVRINHVINLWGADFDAEGNLEAIYVTDSDTNASIGMKKYFVGVNSNGKVAISAKEIEEDNIGAQVLGLFTLSTGQDIWNQTNLEHHHHHH
B10: PRT-475 (protein)
chain: B4 chain with D15N, K32V, G34N, A43T, D45N, G47K, T106L, N107D, E109K, N112E
B11: PRT-469 (protein)
chain: B7 chain with A70R, D100S, A204G, N228E, E232K, E268K, D269E
B12: PRT-461 (protein)
chain: MVTSVWTKGVTPPTDFRKIVDGNIAYYHAPYKAGQGWYDITKTFNGKDDLLCGAATAGNMLHWWFDQNKDQIERYLKEHPEKQKINFNGEQMFDVKEAIDTKDSQTDSKLFEYFKEKAFPYLSTKHLGVFPDHVLDMFINGYRLSLTNHGPTPVKEGSKDPRGGIFDAVFTRGDQSKLLTSRHDFKEKTLKEISDLIKQELTEGKALGLSHTYANVRINHVINLWGADFDSEGNLKAIYVTDSDSNASIGMKKYFVGVNSAGKVAISAKEIKEDNIGAQVLGLFTLSTGQDIWNQTNLEHHHHHH
B13: PRT-516 (protein)
chain: MITSVWTKGVTPPTDFIKGEDVFHAPYKAGQGWYDITKAFDGGDDLLCGAATAGNMLHWWFDQNKEEIEAYLKKHPEKQKIMFGDQELLDVRKVINTKDSQTNSALFNYFKDKAFPNLSARRLGVMPDLVLDMFINGYYLNVYKTQTTDVNRTYQTKDRRGGIFDAVFTRGDQSKLLTERHDLKNKTLNEISQLIKQELTEGKALGLSHTYANVRINHVINLWGADFDAEGNLEAIYVTDSDSNASIGMKKYFVGVNSAGKVAISAKEIKEDNIGAQVLGLFTLSTGQDIWNQTNLEHHHHHH
B14: PRT-509 (protein)
chain: MITSVWTKGVTPPTDFRKIVDGNIAYYHAPYKAGQGWYDITKTFNGKDDLLCGAATAGNMLHWWFDQNKEEIEAYLKKHPEKQKIMFGDQELLDVRKVINTKDSQTNSALFNYFKDKAFPNLSARRLGVMPDLVLDMFINGYYLNVYKTQTTDVNRTYQTKDRRGGIFDAVFTRGDQSKLLTERHDFKEKTLKEISDLIKQELTEGKALGLSHTYANVRINHVINLWGADFDSNGNLEAIYVTDSDSNASIGMKKYFVGVNSAGKVAISAKEIKEDNIGAQVLGLFTLSTGQDIWNQTNLEHHHHHH

What follows are proteins tested against pooled human IgG (human IgG1, 2, 3 and 4).

Protein | Enzyme Activity Endpoint Assay: Fab′2 | Enzyme Activity Endpoint Assay: Fc | Enzyme Activity Endpoint Assay: IgG | Enzyme Activity Endpoint Assay: scIgG | Enzyme Activity Endpoint Assay (purified): Fab′2 | Enzyme Activity Endpoint Assay (purified): Fc | Enzyme Activity Endpoint Assay (purified): IgG | Enzyme Activity Endpoint Assay (purified): scIgG
B1 | 1620 ng/µL | 607 ng/µL | 17 ng/µL | 0 ng/µL |  |  |  | 
B2 | 1250 ng/µL | 324 ng/µL | 0 ng/µL | 0 ng/µL |  |  |  | 
B3 | 1380 ng/µL | 429 ng/µL | 65 ng/µL | 0 ng/µL |  |  |  | 
B4 | 462 ng/µL | 156 ng/µL | 0 ng/µL | 229 ng/µL |  |  |  | 
B5 | 504 ng/µL | 296 ng/µL | 111 ng/µL | 501 ng/µL |  |  |  | 
B6 | 821 ng/µL | 259 ng/µL | 0 ng/µL | 0 ng/µL |  |  |  | 
B7 |  |  |  |  | 450 ng/µL | 379 ng/µL | 138 ng/µL | 337 ng/µL
B8 |  |  |  |  | 1100 ng/µL | 365 ng/µL | 0 ng/µL | 0 ng/µL
B9 |  |  |  |  | 73 ng/µL | 243 ng/µL | 166 ng/µL | 875 ng/µL
B10 |  |  |  |  | 1150 ng/µL | 413 ng/µL | 0 ng/µL | 0 ng/µL
B11 |  |  |  |  | 41 ng/µL | 139 ng/µL | 50 ng/µL | 248 ng/µL
B12 |  |  |  |  | 399 ng/µL | 309 ng/µL | 154 ng/µL | 298 ng/µL
B13 |  |  |  |  | 16 ng/µL | 23 ng/µL | 0 ng/µL | 0 ng/µL
B14 |  |  |  |  | 21 ng/µL | 26 ng/µL | 0 ng/µL | 0 ng/µL
